The results in this text go back to US20260275312, “CRISPR NUCLEASE POLYPEPTIDES AND GENE EDITING SYSTEMS COMPRISING SUCH” (ARBOR BIOTECHNOLOGIES, INC., published 2026).

The target of data set [1] is T1, Nuclease H L54R/L323R/T783R (synthetic construct, L54R,L323R,T783R).
T1 chain: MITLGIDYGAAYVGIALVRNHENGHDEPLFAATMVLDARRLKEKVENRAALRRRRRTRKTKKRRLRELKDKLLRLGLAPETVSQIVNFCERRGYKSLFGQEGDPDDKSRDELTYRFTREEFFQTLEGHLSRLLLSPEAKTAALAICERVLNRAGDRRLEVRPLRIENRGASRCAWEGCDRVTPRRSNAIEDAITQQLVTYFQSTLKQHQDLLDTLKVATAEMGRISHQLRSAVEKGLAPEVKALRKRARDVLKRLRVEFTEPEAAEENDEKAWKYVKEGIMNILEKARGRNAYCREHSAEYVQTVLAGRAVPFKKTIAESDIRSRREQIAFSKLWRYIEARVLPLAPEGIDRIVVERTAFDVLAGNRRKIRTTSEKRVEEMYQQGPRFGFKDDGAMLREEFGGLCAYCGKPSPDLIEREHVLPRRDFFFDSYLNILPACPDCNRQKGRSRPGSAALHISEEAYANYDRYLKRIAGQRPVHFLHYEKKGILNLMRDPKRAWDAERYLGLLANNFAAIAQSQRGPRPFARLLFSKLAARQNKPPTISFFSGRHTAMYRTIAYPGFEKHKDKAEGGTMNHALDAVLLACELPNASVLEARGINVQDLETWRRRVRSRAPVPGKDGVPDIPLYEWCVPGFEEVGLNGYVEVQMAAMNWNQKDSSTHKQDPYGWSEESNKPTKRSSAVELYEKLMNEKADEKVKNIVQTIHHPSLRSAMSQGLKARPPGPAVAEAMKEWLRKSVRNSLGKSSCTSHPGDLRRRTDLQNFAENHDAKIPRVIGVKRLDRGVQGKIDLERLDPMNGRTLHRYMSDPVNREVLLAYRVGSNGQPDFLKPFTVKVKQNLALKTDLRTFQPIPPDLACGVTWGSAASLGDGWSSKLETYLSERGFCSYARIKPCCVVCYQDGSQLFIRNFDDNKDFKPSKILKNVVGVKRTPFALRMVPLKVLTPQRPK
Nature of the data set: cell_activity; HEK293T; PAM AAC. The following applies: tags: N-term SV40 NLS, XTEN linker + C-term nucleoplasmin NLS. The protocol:
HEK293T cells were transfected with plasmids expressing the Nuclease H polypeptides and the gRNAs provided herein following the methods provided in Example 1 above. Gene editing efficiencies were determined by NGS following the methods also provided in Example 1. The NGS results were analyzed also following the methods provided in Example 1 above.
Each Nuclease H variant and RNA guide (see Table 16) was cloned as described in Example 9. HEK293T cells were further transfected, followed by NGS analysis, as described in Example 10. For each target, indel ratios, referring to the percentage of NGS reads comprising indels, were calculated for the reference Nuclease H (SEQ ID NO: 64) and for each Nuclease H variant. The indel ratios shown in Table 18 were calculated as the average of two bioreplicates, each of which contained two technical replicates.

Data set [2] has as its target T2, Nuclease H (synthetic construct).
T2 chain: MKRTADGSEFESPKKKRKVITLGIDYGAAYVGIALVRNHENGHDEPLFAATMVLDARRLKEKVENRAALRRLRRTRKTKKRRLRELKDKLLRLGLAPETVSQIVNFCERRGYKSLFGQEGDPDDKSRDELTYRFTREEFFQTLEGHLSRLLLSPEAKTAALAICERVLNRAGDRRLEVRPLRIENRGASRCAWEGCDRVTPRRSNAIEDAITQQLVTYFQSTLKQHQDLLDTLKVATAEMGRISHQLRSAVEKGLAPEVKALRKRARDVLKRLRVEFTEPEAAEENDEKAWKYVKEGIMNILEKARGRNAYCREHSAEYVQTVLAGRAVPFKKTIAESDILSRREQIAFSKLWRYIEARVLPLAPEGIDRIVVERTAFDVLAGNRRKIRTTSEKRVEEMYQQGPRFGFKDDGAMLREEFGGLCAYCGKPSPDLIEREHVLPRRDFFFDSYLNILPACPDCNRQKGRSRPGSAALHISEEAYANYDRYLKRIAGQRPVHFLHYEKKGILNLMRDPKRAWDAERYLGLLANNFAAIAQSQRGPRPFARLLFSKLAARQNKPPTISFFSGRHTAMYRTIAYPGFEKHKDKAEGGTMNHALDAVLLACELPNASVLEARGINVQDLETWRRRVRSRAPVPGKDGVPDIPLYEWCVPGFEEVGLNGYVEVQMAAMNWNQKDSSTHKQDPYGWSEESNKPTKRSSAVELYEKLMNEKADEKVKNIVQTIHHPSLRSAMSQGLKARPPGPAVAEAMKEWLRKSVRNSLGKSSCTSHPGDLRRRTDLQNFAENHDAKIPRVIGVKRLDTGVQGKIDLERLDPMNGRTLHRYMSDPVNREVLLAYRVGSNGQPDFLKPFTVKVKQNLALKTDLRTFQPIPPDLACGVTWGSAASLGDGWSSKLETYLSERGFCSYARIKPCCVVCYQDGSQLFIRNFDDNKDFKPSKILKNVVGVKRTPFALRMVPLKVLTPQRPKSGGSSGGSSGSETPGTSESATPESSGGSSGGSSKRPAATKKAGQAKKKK
Kind of data set: cell_activity; HEK293T; PAM AAC 3'; Table 16 SEQ IDs shifted, guide taken from Table 15. Conditions: tags: N-term SV40 NLS, XTEN linker + C-term nucleoplasmin NLS.

B1: H AAVS1-T5 RNA guide ; AAVS1-T5 target (H) (ssRNA ; dsDNA)
RNA: GGCUAUAAUCCAUGCUGACCGUUUCAAUCAACCUGAUCUCUCUGCUUGCGCUGCAGGCUUCAUAAGAUCAGUAGGUUGAAAAGAGCAUCCGUCCGACAUGCACUCCGGGAUGGGGCAGUCCCGGCUCUUGCGGUUCCCGAUGCAGUUAUGUGUCCGCGGAACACGGUGUCGGACACGUCGCAAGACAGGAUGUGAGCCCAUUAUCCACAUUAGGAUCAAUGUACGCAUGAGCAGUCCGCAAUGCCGGGGACGCU
DNA 1: GGCTATAATCCATGCTGACC
DNA 2: GGTCAGCATGGATTATAGCC
Take B1: the figures for the activity in data set [1] and in data set [2] were 0.4 indel ratio and 0.0105 indel ratio, respectively.
